Assay results: the RNAGym collection of RNA variant scans (doi:10.1021/acssynbio.7b00057)

B1: Pistol ribozyme (parent)
chain: GGGUCGUUGUUCCAUAAUCGCGUGGAUAUGGCACGCAAGUUUCUACCGGGCACCGUAAAUGUCCGACUGGAGCCGUUCGGGCGGCUAUAAACAGACCUCAGGCCCGAAGCGUGGCGGCACCUGCCGCCGGUGGUAAAAAAGAUCGGAAGAGCACACGUCU

Variants of: B1
Test: aptazyme ON/OFF ratio, guanine; higher = stronger switching; co-transcriptional cleavage with and without guanine

Q: For U7C U8A G9A U10A U11C C12A C13U, which “aptazyme ON/OFF ratio” value is on record?
A: Its value is 1.16.

Q: For U7C U8A G9A U10A U11C C12A C13A, which “aptazyme ON/OFF ratio” value is on record?
A: Its value is 1.17.

Q: For U7C U8A G9A U10A U11C C12A C13G, which “aptazyme ON/OFF ratio” value is on record?
A: Its value is 1.12.

Q: With U7C G9U U10G U11G C12A C13A as the variant, how does the “aptazyme ON/OFF ratio” value read?
A: Its value is 1.1.

Q: With U7C G9U U10G U11G C12A C13G as the variant, how does the “aptazyme ON/OFF ratio” value read?
A: Its value is 1.1.

Q: With U7C G9U U10G U11G C12A C13U as the variant, how does the “aptazyme ON/OFF ratio” value read?
A: The value was 1.17.

Q: Which “aptazyme ON/OFF ratio” value does the source give for U7C U8A C13G here?
A: The value was 1.11.

Q: For U7C U8A C13A, which “aptazyme ON/OFF ratio” value is on record?
A: Its value is 1.31.

Q: With U7C U8A C13U as the variant, how does the “aptazyme ON/OFF ratio” value read?
A: Its value is 1.71.

Q: Which “aptazyme ON/OFF ratio” value does the source give for U7C U8A G9A C12G C13G here?
A: The value was 1.22.

Q: For U7C U8A G9A C12G C13A, which “aptazyme ON/OFF ratio” value is on record?
A: Its value is 1.17.

Q: Which “aptazyme ON/OFF ratio” value does the source give for U7C U8A G9A C12G C13U here?
A: The value was 1.17.

Q: With U7C U8A G9A U10G U11A as the variant, how does the “aptazyme ON/OFF ratio” value read?
A: Its value is 1.01.

Q: With U7C U8A G9A U10G U11C as the variant, how does the “aptazyme ON/OFF ratio” value read?
A: The value was 1.03.

Q: Which “aptazyme ON/OFF ratio” value does the source give for U7C U8A G9A U10G U11G here?
A: Its value is 1.04.

Q: Which “aptazyme ON/OFF ratio” value does the source give for U7C G9U U10G U11C C12A here?
A: The value was 1.2.

Q: Which “aptazyme ON/OFF ratio” value does the source give for U7C G9U U10G U11C C12G here?
A: The value was 1.09.

Q: With U7C G9U U10G U11C C12U as the variant, how does the “aptazyme ON/OFF ratio” value read?
A: The value was 1.14.

Q: For U7C G9U U10G U11A C12A C13G, which “aptazyme ON/OFF ratio” value is on record?
A: The value was 1.13.

Q: For U7C G9U U10G U11A C12A C13U, which “aptazyme ON/OFF ratio” value is on record?
A: Its value is 1.44.

Q: With U7C U8A G9A U10C C12U C13G as the variant, how does the “aptazyme ON/OFF ratio” value read?
A: The value was 1.11.

Q: For U7C U8A G9A U10C C12U C13A, which “aptazyme ON/OFF ratio” value is on record?
A: Its value is 1.11.

Q: Which “aptazyme ON/OFF ratio” value does the source give for U7C U8A G9A U10C C12U C13U here?
A: Its value is 1.26.

Q: For U7C U8A G9A U10G U11G C13G, which “aptazyme ON/OFF ratio” value is on record?
A: Its value is 1.05.

Q: With U7C U8A G9A U10G U11G C13A as the variant, how does the “aptazyme ON/OFF ratio” value read?
A: Its value is 1.11.

Q: For U7C U8A G9A U10G U11G C13U, which “aptazyme ON/OFF ratio” value is on record?
A: Its value is 1.04.

Q: With U7C G9U U11A as the variant, how does the “aptazyme ON/OFF ratio” value read?
A: The value was 1.41.

Q: Which “aptazyme ON/OFF ratio” value does the source give for U7C G9U U11G here?
A: Its value is 1.35.

Q: For U7C G9U U11C, which “aptazyme ON/OFF ratio” value is on record?
A: Its value is 1.12.

Q: Which “aptazyme ON/OFF ratio” value does the source give for U7C U8A G9A U10C U11A C12G here?
A: The value was 1.14.

Q: With U7C U8A G9A U10C U11A C12U as the variant, how does the “aptazyme ON/OFF ratio” value read?
A: Its value is 1.28.

Q: Which “aptazyme ON/OFF ratio” value does the source give for U7C U8A G9A U10C U11A C12A here?
A: Its value is 1.12.

Q: With U7C G9U U11A C13A as the variant, how does the “aptazyme ON/OFF ratio” value read?
A: The value was 1.2.

Q: With U7C G9U U11A C13U as the variant, how does the “aptazyme ON/OFF ratio” value read?
A: Its value is 1.25.

Q: For U7C G9U U11A C13G, which “aptazyme ON/OFF ratio” value is on record?
A: Its value is 1.03.

Q: Which “aptazyme ON/OFF ratio” value does the source give for U7C U8A G9A U10A U11A C12A here?
A: The value was 1.2.

Q: Which “aptazyme ON/OFF ratio” value does the source give for U7C U8A G9A U10A U11A C12G here?
A: The value was 1.23.

Q: For U7C U8A G9A U10A U11A C12U, which “aptazyme ON/OFF ratio” value is on record?
A: The value was 1.19.

Q: Which “aptazyme ON/OFF ratio” value does the source give for U7C U8A G9A U10A U11G C12G C13U here?
A: The value was 1.18.

Q: For U7C U8A G9A U10A U11G C12G C13A, which “aptazyme ON/OFF ratio” value is on record?
A: Its value is 1.26.

Q: For U7C U8A G9A U10A U11G C12G C13G, which “aptazyme ON/OFF ratio” value is on record?
A: Its value is 1.28.

Q: For U7C U8A G9A U10G U11G C12U C13G, which “aptazyme ON/OFF ratio” value is on record?
A: The value was 1.14.

Q: With U7C U8A G9A U10G U11G C12U C13A as the variant, how does the “aptazyme ON/OFF ratio” value read?
A: The value was 1.11.

Q: With U7C U8A G9A U10G U11G C12U C13U as the variant, how does the “aptazyme ON/OFF ratio” value read?
A: Its value is 1.2.

Q: With U7C U8A G9A U10C C12A C13U as the variant, how does the “aptazyme ON/OFF ratio” value read?
A: The value was 1.24.

Q: For U7C U8A G9A U10C C12A C13G, which “aptazyme ON/OFF ratio” value is on record?
A: The value was 1.16.

Q: With U7C U8A G9A U10C C12A C13A as the variant, how does the “aptazyme ON/OFF ratio” value read?
A: Its value is 1.14.

Q: With U7C G9U U11A C12G C13G as the variant, how does the “aptazyme ON/OFF ratio” value read?
A: Its value is 1.24.

Q: Which “aptazyme ON/OFF ratio” value does the source give for U7C G9U U11A C12G C13U here?
A: The value was 1.14.

Q: With U7C G9U U11A C12G C13A as the variant, how does the “aptazyme ON/OFF ratio” value read?
A: Its value is 1.2.

Q: Which “aptazyme ON/OFF ratio” value does the source give for U7C U8A G9A U10C C12A here?
A: The value was 1.19.

Q: With U7C U8A G9A U10C C12G as the variant, how does the “aptazyme ON/OFF ratio” value read?
A: The value was 1.2.

Q: Which “aptazyme ON/OFF ratio” value does the source give for U7C U8A G9A U10C C12U here?
A: Its value is 1.58.

Q: For U7C U8A G9A U10G C12G, which “aptazyme ON/OFF ratio” value is on record?
A: The value was 1.25.

Q: For U7C U8A G9A U10G C12A, which “aptazyme ON/OFF ratio” value is on record?
A: Its value is 1.15.

Q: Which “aptazyme ON/OFF ratio” value does the source give for U7C U8A G9A U10G C12U here?
A: Its value is 1.29.

Q: For U7C G9U U11G C12U, which “aptazyme ON/OFF ratio” value is on record?
A: Its value is 1.47.

Q: For U7C G9U U11G C12G, which “aptazyme ON/OFF ratio” value is on record?
A: Its value is 1.18.

Q: With U7C G9U U11G C12A as the variant, how does the “aptazyme ON/OFF ratio” value read?
A: Its value is 1.09.

Q: Which “aptazyme ON/OFF ratio” value does the source give for U7C U8A G9A U10A C12G here?
A: Its value is 1.21.

Q: Which “aptazyme ON/OFF ratio” value does the source give for U7C U8A G9A U10A C12A here?
A: The value was 1.19.

Q: With U7C U8A G9A U10A C12U as the variant, how does the “aptazyme ON/OFF ratio” value read?
A: The value was 1.22.

Q: Which “aptazyme ON/OFF ratio” value does the source give for U7C U8A G9A U10G U11G C12G C13G here?
A: Its value is 1.23.

Q: With U7C U8A G9A U10G U11G C12G C13U as the variant, how does the “aptazyme ON/OFF ratio” value read?
A: The value was 1.2.

Q: For U7C U8A G9A U10G U11G C12G C13A, which “aptazyme ON/OFF ratio” value is on record?
A: The value was 1.21.

Q: With U7C G9U U11A C12A as the variant, how does the “aptazyme ON/OFF ratio” value read?
A: Its value is 1.36.

Q: With U7C G9U U11A C12U as the variant, how does the “aptazyme ON/OFF ratio” value read?
A: The value was 1.39.

Q: Which “aptazyme ON/OFF ratio” value does the source give for U7C G9U U11A C12G here?
A: Its value is 1.33.

Q: For U7C G9U U10G U11G C12G C13G, which “aptazyme ON/OFF ratio” value is on record?
A: The value was 1.12.

Q: For U7C G9U U10G U11G C12G C13A, which “aptazyme ON/OFF ratio” value is on record?
A: Its value is 1.13.

Q: With U7C G9U U10G U11G C12G C13U as the variant, how does the “aptazyme ON/OFF ratio” value read?
A: The value was 1.08.

Q: For U7C U8A G9A U10C U11G C12U C13U, which “aptazyme ON/OFF ratio” value is on record?
A: Its value is 1.26.

Q: For U7C U8A G9A U10C U11G C12U C13A, which “aptazyme ON/OFF ratio” value is on record?
A: Its value is 1.17.

Q: With U7C U8A G9A U10C U11G C12U C13G as the variant, how does the “aptazyme ON/OFF ratio” value read?
A: Its value is 1.27.

Q: For U7C U8A G9A U10C C13A, which “aptazyme ON/OFF ratio” value is on record?
A: Its value is 1.03.

Q: For U7C U8A G9A U10C C13U, which “aptazyme ON/OFF ratio” value is on record?
A: Its value is 1.51.

Q: Which “aptazyme ON/OFF ratio” value does the source give for U7C U8A G9A U10C C13G here?
A: Its value is 1.05.

Q: For U7C U8A G9A U10G C12G C13G, which “aptazyme ON/OFF ratio” value is on record?
A: The value was 1.04.

Q: For U7C U8A G9A U10G C12G C13U, which “aptazyme ON/OFF ratio” value is on record?
A: Its value is 1.27.

Q: With U7C U8A G9A U10G C12G C13A as the variant, how does the “aptazyme ON/OFF ratio” value read?
A: Its value is 1.1.

Q: Which “aptazyme ON/OFF ratio” value does the source give for U7C G9U U10G U11A C12U here?
A: The value was 1.08.

Q: For U7C G9U U10G U11A C12G, which “aptazyme ON/OFF ratio” value is on record?
A: The value was 1.27.

Q: Which “aptazyme ON/OFF ratio” value does the source give for U7C U8A G9A U11A C13A here?
A: Its value is 1.17.

Q: With U7C U8A G9A U11A C13U as the variant, how does the “aptazyme ON/OFF ratio” value read?
A: The value was 1.14.
